Measured values published in patent US20260133192A1 (FRED HUTCHINSON CANCER CENTER, published 2026).
*1 amine or outer side, *2 acyl side, *3 side chain or, on linkers, in order; H or OH if unused. Where no end group is shown, it is not given here. [ ]: non-standard residue; d: D form. βAsp = O=C(O)[C@H](CC(=O)[*:2])N[*:1]; Cit = NC(=O)NCCC[C@H](N)C(=O)O

Legend:
Assay in all cases: B cells sorted with PTM-peptide tetramers; PTM epitope to which the cloned antibody binds, Table 7
[1] = molecular target: T1, SPINK1-1 PTM peptide YNEL{iso-Asp}GCTKI (human)
T1 construct: Synthetic isoaspartylated fragment of SPINK1
T1 peptide: YNEL[βAsp]GCTKI
Source text: (§1) Once the immunogenic PTM peptides targeted by autoantibodies were identified, PTM-specific autoantibodies were isolated directly from SCLC patients and sequenced (FIG. 13). To accomplish this, PTM-binding B cells were enriched from SCLC patient peripheral blood mononuclear cells using PTM-peptide tetramers. PTM-peptide tetramers were created by combining PE- or APC-labeled magnetic tetramers containing streptavidin cores with biotinylated PTM peptides identified to bind more AAb from SCLC patient plasma compared to wildtype peptides. Five different PTM peptides were included in each PTM-tetramer; 5 citrullinated TFRC peptides were conjugated to PE-tetramers and 5 isoaspartylated peptides (3 CA9, 1 PLD3 and 1 SPINK1) were conjugated to APC-tetramers. These PTM-tetramers were then incubated with pooled peripheral blood mononuclear cells (PBMCs) from 3 different SCLC patients and tetramer bound cells were isolated with magnetic microbeads. This PTM-tetramer ‘enriched’ fraction was labeled with fluorescent antibodies and fluorescence activated cell sorted (FACS) into single cells. PTM-tetramer+ B cells were sorted, heavy and light chain antibody sequences from each B cell were amplified by RT-PCR, and heavy and light chain pairs were successfully sequenced. These sequences were cloned into human IgG expression vectors for antibody production and are shown in Table 7 with the location of the CRs underlined. The sequences of the CDRs were determined using the ImMunoGeneTics (IMGT) information system domain gap align.

[2] = molecular target: T2, TFRC-4 PTM peptide LNDRVM{Cit}VEYC (human, also: biotinylated, site not given here)
T2 construct: Synthetic citrullinated fragment of TFRC; biotinylated on streptavidin tetramers for B cell sorting
T2 peptide: LNDRVM[Cit]VEYC
Source text: as §1

[3] = molecular target: T3, CA9-3 PTM peptide GV{isoAsp}SSPR (human)
T3 construct: Synthetic isoaspartylated fragment of CA9
T3 peptide: GV[βAsp]SSPR
Source text: as §1

[4] = molecular target: T4, TFRC-5 PTM peptide LND{Cit}VMRVC (human, also: biotinylated, site not given here)
T4 construct: Synthetic citrullinated fragment of TFRC; biotinylated on tetramers for B cell sorting
T4 peptide: LND[Cit]VMRVC
Source text: as §1

[5] = molecular target: T5, TFRC-1 PTM peptide DFPAA{Cit}RLYW (human)
T5 construct: Synthetic citrullinated fragment of TFRC
T5 peptide: DFPAA[Cit]RLYW
Source text: as §1

[6] = molecular target: T6, TFRC-2 PTM peptide DFPAAR{Cit}LYW (human)
T6 construct: Synthetic citrullinated fragment of TFRC
T6 peptide: DFPAAR[Cit]LYW
Source text: as §1

B1: 1A6 (antibody, V domains shown)
VH: QAGLLESGGGVVQPGRSLRLSCAASGFTFSSYGMHWVRQAPGKGLEWVAVIWYDGSNKYYADSVKGRFTISRDNSKNTLYLQMNSLRAEDTAVYYCARGGGITGTVSRKQGMDVWGQGTLVTVSS
VL: AIQLTQSPSSLSASVGDRVTITCRASQGISSYLAWYQQKPGKAPKLLMYGASTLQSGVPSRFSGSGSGTDFTLTISSLQPEDFATYYCQQVNSYPLTFGGGTKVEIK
binding result [1]: binds

B2: 2D2 antibody (antibody, V domains shown)
VH: QVQLVESGGGVVQPGRSLRLSCAASGFTFNSFALMWVRQAPGKGLEWVAVISNDGSNTYYADSVKGRFTISRDNSKNTLYLQMNSLRAEDTAVYYCARGSQYYGSGRYSRKQFDYWGQGTMVTVSS
VL: DIQMTQSPLSLPVTPGEPASISCRSSQSLLHADDGNTYLDWYLQKPGQSPQLLIYTLSSRASGVPDRFSGSGSGTNFTLRISRVEAEDVGVYYCMQRIESPLTFGGGTKVEIK
notes: From B cells of SCLC patient PBMCs; Labeled with CF770 for the in vivo imaging; also called 770-labeled 2D2 antibody
binding result [2]: binds

B3: 1B3 (antibody, V domains shown)
VH: QVQLVESGGGLVQPGGSLRLSCAASGFTFSSYWMSWVRQAPGKGLEWVANIKQDGSEEYYVDSVKGRFTISRDNAKSLLYLQMNSLRPEDTAVYYCAGDSLPSSGWEGYFQHWGQGTLVTVSS
VL: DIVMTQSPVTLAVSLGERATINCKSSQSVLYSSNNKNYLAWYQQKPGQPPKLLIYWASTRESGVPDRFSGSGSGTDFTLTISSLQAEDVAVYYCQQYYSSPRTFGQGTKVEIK
binding result [3]: binds

B4: 2H8 (antibody, V domains shown)
VH: QVQLVESGGGVVQPGRSLRLSCAASGFTFSTYGMHWVRQAPGKGLQWVAQISNDGSSKYYGDSVKGRFTISRDNSKNTLYLQMNSLRVEDTGVYYCASSGSSGTWGQGTQVTVSS
VL: EIVLTQSPATLFLFPGERVTFSCRASQSVNNYLAWYQQKPGQAPRLLIYDVSNRATGIPARFSGSGSGTDFTLTISSLDPEDFAVYFCQQRSNWPLTFGGGTKVEIK
binding result [4]: binds

B5: 2H5 (antibody, V domains shown)
VH: EVQLLESGGGLAQPGGSLRLSCGASGFTFSSHALSWVRLAPGKGLEWVSAISGSGDRTYYADSVKGRFTISRDNSKNMLYLQMNSLRGEDTAVYYCAKEATESYATSWGQGTLVTVSS
VL: DIQMTQSPSTLSASVGDRVTITCRASQSISSWLAWYQQKPGKAPNLLISKAFSVESGVPSTFSGSGSGTEFTLTISSLQPRDSASYYCQQYDSGWTFGQGTKVEIK
binding result [5]: binds
binding result [6]: binds
